Laboratory results: patent US20230088277A1 (SHANGHAI SYNVIDA BIOTECHNOLOGY, published 2023)
Where a chain is given by its changes, count along the chain named. Values belong to the binder of their own block, whether it stands above or below them.

Columns and labels:
[1] = target: T1, 6×His tag human Pear1 extracellular segment (Leu-21-Ser; 754) (human, UniProt Q5VY43 21-754); experiment: ELISA, plate coated with human Pear1 ECD
T1 construct: range 21-754; The ELISA and the Biacore test only say 'human Pear1 ECD protein' / 'extracellular segment'; also called human Pear1 ECD protein; human Pear1ECD protein; not shown: 6×His tag
T1 sequence (looked up): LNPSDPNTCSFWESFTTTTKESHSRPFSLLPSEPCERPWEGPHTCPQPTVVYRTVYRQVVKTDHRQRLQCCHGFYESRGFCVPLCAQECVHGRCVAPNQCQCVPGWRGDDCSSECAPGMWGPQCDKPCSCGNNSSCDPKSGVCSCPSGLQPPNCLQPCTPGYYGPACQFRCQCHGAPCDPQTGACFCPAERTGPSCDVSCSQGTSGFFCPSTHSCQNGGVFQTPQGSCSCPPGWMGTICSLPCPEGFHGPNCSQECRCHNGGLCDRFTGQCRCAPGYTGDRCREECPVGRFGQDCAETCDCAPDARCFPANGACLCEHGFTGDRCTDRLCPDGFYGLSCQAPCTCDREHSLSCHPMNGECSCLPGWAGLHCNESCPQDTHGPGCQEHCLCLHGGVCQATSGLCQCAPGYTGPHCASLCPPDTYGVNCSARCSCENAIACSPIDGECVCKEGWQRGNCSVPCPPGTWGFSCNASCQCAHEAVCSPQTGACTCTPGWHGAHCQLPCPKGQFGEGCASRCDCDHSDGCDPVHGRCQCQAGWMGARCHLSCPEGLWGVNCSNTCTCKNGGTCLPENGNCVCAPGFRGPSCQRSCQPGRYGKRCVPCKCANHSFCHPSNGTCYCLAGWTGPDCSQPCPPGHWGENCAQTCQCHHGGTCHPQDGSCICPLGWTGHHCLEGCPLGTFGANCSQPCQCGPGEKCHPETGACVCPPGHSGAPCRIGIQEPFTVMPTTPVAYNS
Protocol: FIG. 6 The comparison of the affinities of the anti-human Pear1 antibodies to human Pear1. The ELISA plate was coated with human Pear1 ECD proteins and the reactions were conducted between antibodies at different concentrations (2000 ng/mL, 1000 ng/mL, 500 ng/mL, 250 ng/mL, 125 ng/mL, 62.5 ng/mL, 31.25 ng/mL, 15.625 ng/mL, 7.8125 ng/mL, 3.90625 ng/mL, 1.953125 ng/mL, 0.9765625 ng/mL) and the human Pear1 ECD proteins. OD value was measured to obtain the EC 50 value of the antigen-antibody combination
8.2.1 Comparison of antigen binding ability of these antibodies.

[2] = target: T1, 6×His tag human Pear1 extracellular …; experiment: SPR (Biacore); antibody as ligand, Pear1 extracellular segment

B1: LF2 (antibody, V domains shown)
VH: EVQLQQSGPELVKPGASMKISCKASGYSFTGYPMNWVRQSHVKNLEWIGVINPYNGGTSYNQKFKGKATLTVDKSSSTAYIELLSLTSDDSAVYYCARGGVRPFAYWGQGTLVTVSA
VL: DIQMTQTSSSFSVSLGDRVTITCKASEDIYNRLAWYQQKPGNAPRLLISGATSLETGVPSRFSGSGSGNDYTLSITSLQTEDVATYYCQQYWSTPTFGAGTKLELQ
notes: Mouse monoclonal antibody from hybridoma
- EC50 [1]: 0.0111 µg/mL

B2: LF11 (antibody, V domains shown)
VH: B1 VH with R38K, S40T, V42G, V50L, I81M, D90E, A105D, Y106F
VL: DIVITQSPAIMSASPGEKVTMTCSARSSVSYMYWYQQKPGSSPRLLIYDTSKLASGVPVRFSGSGSGTSYSLTISRMEAEDAATYFCQQWSSYPPTFGGGTKLEIK
notes: as for B1
- EC50 [1]: 0.00891 µg/mL

B3: LF16 (antibody, V domains shown)
VH: EVQLQQSGPELVKPGASMKISCKASGYAFTGYTMNWVKQSHGKNLDWIGVINGYNGGTSYNQKFKGKATLTVDKSSSTAYMELLSLTSEDSAIYYCARGGPTTGFVYWGQGTLVTVSA
VL: B1 VL with N69K, Q106K
notes: as for B1
- EC50 [1]: 0.0547 µg/mL

B4: LF7 (antibody, V domains shown)
VH: B1 VH with V42G, P53S, T58A, S77N, T78I, A79V, Y80H, I81M, D89E
VL: DIVMTQSQKFMSTSVGDRVSVTCKASQNVDTNVAWYQQKPGQSPKALIYSASYRYSGVPDRFTGSGSGTDFTLTISNVQSEDLAEYFCQQYDSYPYTFGGGTKLEIR
notes: as for B1
- EC50 [1]: 0.0336 µg/mL

B5: LF2-hIgG4 (antibody, V domains shown)
VH: B1 VH
VL: B1 VL
notes: read from the name as the variable domains of LF2 on human IgG4 constant regions; also called LF2-hlgG 4
- Kd [2]: 3.52 nM
- koff [2]: 0.000187 s⁻¹
- kon [2]: 53100 M⁻¹ s⁻¹
- t1/2 [2]: 3710 s

B6: LF3 (antibody, V domains shown)
VH: B1 VH with R38K, S40T, V42G, V50L, I81M, D90E, A105D, Y106F
VL: B1 VL
notes: as for B1
- EC50 [1]: 0.00927 µg/mL

B7: hLF109 (antibody, V domains shown)
VH: QVQLVQSGAEVKKPGASVKVSCKASGYTFTGYPMNWVRQAPGQNLEWMGVINPYNGGTSYNQKFKGRVTLTVDKSASTAYMELSSLRSEDTAVYYCARGGVRPFAYWGQGTLVTVSS
VL: DIQMTQSPSSLSASVGDRVTITCKASEDIYNRLAWYQQKPGKAPKLLISGATSLETGVPSRFSGSGSGNDFTLTISSLQPEDFATYYCQQYWSTPTFGQGTKLEIK
notes: Humanized antibody
- Kd [2]: 6.14 nM
- koff [2]: 0.000249 s⁻¹
- kon [2]: 40500 M⁻¹ s⁻¹
- t1/2 [2]: 2790 s

B10: hLF103 (antibody, V domains shown)
VH: B7 VH with V72R
VL: B7 VL with F71Y
notes: Humanized antibody
- Kd [2]: 19 nM
- koff [2]: 0.000532 s⁻¹
- kon [2]: 28000 M⁻¹ s⁻¹
- t1/2 [2]: 1300 s

B13: hLF104 (antibody, V domains shown)
VH: B7 VH with V72R
VL: B7 VL with K42N, F71Y
notes: Humanized antibody
- Kd [2]: 13.3 nM
- koff [2]: 0.000506 s⁻¹
- kon [2]: 38000 M⁻¹ s⁻¹
- t1/2 [2]: 1370 s

B15: hLF102 (antibody, V domains shown)
VH: B7 VH with V72R
VL: B7 VL with K42N
notes: Humanized antibody
- Kd [2]: 7.87 nM
- koff [2]: 0.000395 s⁻¹
- kon [2]: 50200 M⁻¹ s⁻¹
- t1/2 [2]: 1750 s

B17: hLF101 (antibody, V domains shown)
VH: B7 VH with V72R
VL: B7 VL
notes: Humanized antibody (CDR grafting with back mutations)
- Kd [2]: 7.67 nM
- koff [2]: 0.000393 s⁻¹
- kon [2]: 51200 M⁻¹ s⁻¹
- t1/2 [2]: 1770 s

B19: hLF105 (antibody, V domains shown)
VH: B7 VH with Q43K, N44R, V68A, K74T
VL: B7 VL
notes: Humanized antibody
- Kd [2]: 3.82 nM
- koff [2]: 0.000176 s⁻¹
- kon [2]: 46200 M⁻¹ s⁻¹
- t1/2 [2]: 3930 s

B23: LF15 (antibody, V domains shown)
VH: EVQLQQSGPELVKPGASMKISCKASGYSFTGYTMNWVKQSHGENLEWIGVINPYNGGTSYNQKFKGKATLTVDKSFSTAYMEILSLTSEDSAVYYCSRGGGNSWFAYWGQGTLVTVSA
VL: DIQMTQTSSYLSVSLGGRVTITCKASDHINNWLAWYQQKPGNAPRLLISGATSLETGVPSRFSGSGSGTDYSLTITSLQTEDVATYYCQQYWSIPTFGGGTRLEIK
notes: as for B1
- EC50 [1]: 0.0807 µg/mL

Continued, values first:

- Kd [2]: 6.87 nM
- koff [2]: 0.000271 s⁻¹
- kon [2]: 39500 M⁻¹ s⁻¹
- t1/2 [2]: 2560 s
B8: hLF111 (antibody, V domains shown)
VH: B7 VH
VL: B7 VL with F71Y
notes: Humanized antibody

- Kd [2]: 4.28 nM
- koff [2]: 0.000201 s⁻¹
- kon [2]: 47000 M⁻¹ s⁻¹
- t1/2 [2]: 3450 s
B9: hLF113 (antibody, V domains shown)
VH: B7 VH with Q43K, V68A
VL: B7 VL
notes: Humanized antibody

- Kd [2]: 5.31 nM
- koff [2]: 0.000235 s⁻¹
- kon [2]: 44200 M⁻¹ s⁻¹
- t1/2 [2]: 2950 s
B11: hLF115 (antibody, V domains shown)
VH: B7 VH with Q43K, V68A
VL: B7 VL with F71Y
notes: Humanized antibody

- Kd [2]: 6.74 nM
- koff [2]: 0.000345 s⁻¹
- kon [2]: 51200 M⁻¹ s⁻¹
- t1/2 [2]: 2010 s
B12: hLF107 (antibody, V domains shown)
VH: B7 VH with Q43K, N44R, V68A, K74T
VL: B7 VL with F71Y
notes: Humanized antibody

- Kd [2]: 5.42 nM
- koff [2]: 0.000236 s⁻¹
- kon [2]: 43500 M⁻¹ s⁻¹
- t1/2 [2]: 2940 s
B14: hLF110 (antibody, V domains shown)
VH: B7 VH
VL: B7 VL with K42N
notes: Humanized antibody; also called hLFHO

- Kd [2]: 5.8 nM
- koff [2]: 0.000233 s⁻¹
- kon [2]: 40100 M⁻¹ s⁻¹
- t1/2 [2]: 2980 s
B16: hLF106 (antibody, V domains shown)
VH: B7 VH with Q43K, N44R, V68A, K74T
VL: B7 VL with K42N
notes: Humanized antibody

- Kd [2]: 4.99 nM
- koff [2]: 0.000237 s⁻¹
- kon [2]: 47500 M⁻¹ s⁻¹
- t1/2 [2]: 2920 s
B18: hLF112 (antibody, V domains shown)
VH: B7 VH
VL: B7 VL with K42N, F71Y
notes: Humanized antibody

- Kd [2]: 5.98 nM
- koff [2]: 0.000307 s⁻¹
- kon [2]: 51300 M⁻¹ s⁻¹
- t1/2 [2]: 2260 s
B20: hLF108 (antibody, V domains shown)
VH: B7 VH with Q43K, N44R, V68A, K74T
VL: B7 VL with K42N, F71Y
notes: Humanized antibody

- Kd [2]: 5.09 nM
- koff [2]: 0.000232 s⁻¹
- kon [2]: 45600 M⁻¹ s⁻¹
- t1/2 [2]: 2990 s
B21: hLF114 (antibody, V domains shown)
VH: B7 VH with Q43K, V68A
VL: B7 VL with K42N
notes: Humanized antibody

- Kd [2]: 5.09 nM
- koff [2]: 0.000221 s⁻¹
- kon [2]: 43400 M⁻¹ s⁻¹
- t1/2 [2]: 3140 s
B22: hLF116 (antibody, V domains shown)
VH: B7 VH with Q43K, V68A
VL: B7 VL with K42N, F71Y
notes: Humanized antibody
